# The RNAGym collection of RNA variant scans (doi:10.1021/acssynbio.7b00057)
# B1: Pistol ribozyme (parent)
# chain: GGGUCGUUGUUCCAUAAUCGCGUGGAUAUGGCACGCAAGUUUCUACCGGGCACCGUAAAUGUCCGACUGGAGCCGUUCGGGCGGCUAUAAACAGACCUCAGGCCCGAAGCGUGGCGGCACCUGCCGCCGGUGGUAAAAAAGAUCGGAAGAGCACACGUCU
# Variants of: B1
# Experiment: aptazyme ON/OFF ratio, guanine; higher = stronger switching; co-transcriptional cleavage with and without guanine
row,Variant,aptazyme ON/OFF ratio
1,GGGUCGGCAGGAUAUAAUCGCGUGGAUAUGGCACGCAAGUUUCUACCGGGCACCGUAAAUGUCCGACUGGAGCCGUUCGGGCGGCUAUAAACAGACCUCAGGCCCGAAGCGUGGCGGCACCUGCCGCCGGUGGUAAAAAAGAUCGGAAGAGCACACGUCU,1.3
2,GGGUCGGCAGGAAAUAAUCGCGUGGAUAUGGCACGCAAGUUUCUACCGGGCACCGUAAAUGUCCGACUGGAGCCGUUCGGGCGGCUAUAAACAGACCUCAGGCCCGAAGCGUGGCGGCACCUGCCGCCGGUGGUAAAAAAGAUCGGAAGAGCACACGUCU,1.13
3,GGGUCGGCAGGAGAUAAUCGCGUGGAUAUGGCACGCAAGUUUCUACCGGGCACCGUAAAUGUCCGACUGGAGCCGUUCGGGCGGCUAUAAACAGACCUCAGGCCCGAAGCGUGGCGGCACCUGCCGCCGGUGGUAAAAAAGAUCGGAAGAGCACACGUCU,1.1
4,GGGUCGGCAGCCUAUAAUCGCGUGGAUAUGGCACGCAAGUUUCUACCGGGCACCGUAAAUGUCCGACUGGAGCCGUUCGGGCGGCUAUAAACAGACCUCAGGCCCGAAGCGUGGCGGCACCUGCCGCCGGUGGUAAAAAAGAUCGGAAGAGCACACGUCU,1.05
5,GGGUCGGCAGCCAAUAAUCGCGUGGAUAUGGCACGCAAGUUUCUACCGGGCACCGUAAAUGUCCGACUGGAGCCGUUCGGGCGGCUAUAAACAGACCUCAGGCCCGAAGCGUGGCGGCACCUGCCGCCGGUGGUAAAAAAGAUCGGAAGAGCACACGUCU,1.14
6,GGGUCGGCAGCCGAUAAUCGCGUGGAUAUGGCACGCAAGUUUCUACCGGGCACCGUAAAUGUCCGACUGGAGCCGUUCGGGCGGCUAUAAACAGACCUCAGGCCCGAAGCGUGGCGGCACCUGCCGCCGGUGGUAAAAAAGAUCGGAAGAGCACACGUCU,1.07
7,GGGUCGGCAUAGGAUAAUCGCGUGGAUAUGGCACGCAAGUUUCUACCGGGCACCGUAAAUGUCCGACUGGAGCCGUUCGGGCGGCUAUAAACAGACCUCAGGCCCGAAGCGUGGCGGCACCUGCCGCCGGUGGUAAAAAAGAUCGGAAGAGCACACGUCU,1.06
8,GGGUCGGCAUAGAAUAAUCGCGUGGAUAUGGCACGCAAGUUUCUACCGGGCACCGUAAAUGUCCGACUGGAGCCGUUCGGGCGGCUAUAAACAGACCUCAGGCCCGAAGCGUGGCGGCACCUGCCGCCGGUGGUAAAAAAGAUCGGAAGAGCACACGUCU,1.05
9,GGGUCGGCAUAGUAUAAUCGCGUGGAUAUGGCACGCAAGUUUCUACCGGGCACCGUAAAUGUCCGACUGGAGCCGUUCGGGCGGCUAUAAACAGACCUCAGGCCCGAAGCGUGGCGGCACCUGCCGCCGGUGGUAAAAAAGAUCGGAAGAGCACACGUCU,1.1
10,GGGUCGGCAUACCAUAAUCGCGUGGAUAUGGCACGCAAGUUUCUACCGGGCACCGUAAAUGUCCGACUGGAGCCGUUCGGGCGGCUAUAAACAGACCUCAGGCCCGAAGCGUGGCGGCACCUGCCGCCGGUGGUAAAAAAGAUCGGAAGAGCACACGUCU,2.48
11,GGGUCGGCAUAAGAUAAUCGCGUGGAUAUGGCACGCAAGUUUCUACCGGGCACCGUAAAUGUCCGACUGGAGCCGUUCGGGCGGCUAUAAACAGACCUCAGGCCCGAAGCGUGGCGGCACCUGCCGCCGGUGGUAAAAAAGAUCGGAAGAGCACACGUCU,1.07
12,GGGUCGGCAUAAUAUAAUCGCGUGGAUAUGGCACGCAAGUUUCUACCGGGCACCGUAAAUGUCCGACUGGAGCCGUUCGGGCGGCUAUAAACAGACCUCAGGCCCGAAGCGUGGCGGCACCUGCCGCCGGUGGUAAAAAAGAUCGGAAGAGCACACGUCU,1.11
13,GGGUCGGCAUAAAAUAAUCGCGUGGAUAUGGCACGCAAGUUUCUACCGGGCACCGUAAAUGUCCGACUGGAGCCGUUCGGGCGGCUAUAAACAGACCUCAGGCCCGAAGCGUGGCGGCACCUGCCGCCGGUGGUAAAAAAGAUCGGAAGAGCACACGUCU,1.08
14,GGGUCGGCAGCUCAUAAUCGCGUGGAUAUGGCACGCAAGUUUCUACCGGGCACCGUAAAUGUCCGACUGGAGCCGUUCGGGCGGCUAUAAACAGACCUCAGGCCCGAAGCGUGGCGGCACCUGCCGCCGGUGGUAAAAAAGAUCGGAAGAGCACACGUCU,1.09
15,GGGUCGGCAGGCUAUAAUCGCGUGGAUAUGGCACGCAAGUUUCUACCGGGCACCGUAAAUGUCCGACUGGAGCCGUUCGGGCGGCUAUAAACAGACCUCAGGCCCGAAGCGUGGCGGCACCUGCCGCCGGUGGUAAAAAAGAUCGGAAGAGCACACGUCU,1.38
16,GGGUCGGCAGGCGAUAAUCGCGUGGAUAUGGCACGCAAGUUUCUACCGGGCACCGUAAAUGUCCGACUGGAGCCGUUCGGGCGGCUAUAAACAGACCUCAGGCCCGAAGCGUGGCGGCACCUGCCGCCGGUGGUAAAAAAGAUCGGAAGAGCACACGUCU,1.28
17,GGGUCGGCAGGCAAUAAUCGCGUGGAUAUGGCACGCAAGUUUCUACCGGGCACCGUAAAUGUCCGACUGGAGCCGUUCGGGCGGCUAUAAACAGACCUCAGGCCCGAAGCGUGGCGGCACCUGCCGCCGGUGGUAAAAAAGAUCGGAAGAGCACACGUCU,1.31
18,GGGUCGGCAGCUUAUAAUCGCGUGGAUAUGGCACGCAAGUUUCUACCGGGCACCGUAAAUGUCCGACUGGAGCCGUUCGGGCGGCUAUAAACAGACCUCAGGCCCGAAGCGUGGCGGCACCUGCCGCCGGUGGUAAAAAAGAUCGGAAGAGCACACGUCU,1.12

row,Variant,aptazyme ON/OFF ratio
1,GGGUCGGCAGCUGAUAAUCGCGUGGAUAUGGCACGCAAGUUUCUACCGGGCACCGUAAAUGUCCGACUGGAGCCGUUCGGGCGGCUAUAAACAGACCUCAGGCCCGAAGCGUGGCGGCACCUGCCGCCGGUGGUAAAAAAGAUCGGAAGAGCACACGUCU,1.16
2,GGGUCGGCAGCUAAUAAUCGCGUGGAUAUGGCACGCAAGUUUCUACCGGGCACCGUAAAUGUCCGACUGGAGCCGUUCGGGCGGCUAUAAACAGACCUCAGGCCCGAAGCGUGGCGGCACCUGCCGCCGGUGGUAAAAAAGAUCGGAAGAGCACACGUCU,1.12
3,GGGUCGGCAGGGUAUAAUCGCGUGGAUAUGGCACGCAAGUUUCUACCGGGCACCGUAAAUGUCCGACUGGAGCCGUUCGGGCGGCUAUAAACAGACCUCAGGCCCGAAGCGUGGCGGCACCUGCCGCCGGUGGUAAAAAAGAUCGGAAGAGCACACGUCU,1.14
4,GGGUCGGCAGGGGAUAAUCGCGUGGAUAUGGCACGCAAGUUUCUACCGGGCACCGUAAAUGUCCGACUGGAGCCGUUCGGGCGGCUAUAAACAGACCUCAGGCCCGAAGCGUGGCGGCACCUGCCGCCGGUGGUAAAAAAGAUCGGAAGAGCACACGUCU,1.2
5,GGGUCGGCAGGGAAUAAUCGCGUGGAUAUGGCACGCAAGUUUCUACCGGGCACCGUAAAUGUCCGACUGGAGCCGUUCGGGCGGCUAUAAACAGACCUCAGGCCCGAAGCGUGGCGGCACCUGCCGCCGGUGGUAAAAAAGAUCGGAAGAGCACACGUCU,1.13
6,GGGUCGGCAGGUGAUAAUCGCGUGGAUAUGGCACGCAAGUUUCUACCGGGCACCGUAAAUGUCCGACUGGAGCCGUUCGGGCGGCUAUAAACAGACCUCAGGCCCGAAGCGUGGCGGCACCUGCCGCCGGUGGUAAAAAAGAUCGGAAGAGCACACGUCU,1.22
7,GGGUCGGCAGGUUAUAAUCGCGUGGAUAUGGCACGCAAGUUUCUACCGGGCACCGUAAAUGUCCGACUGGAGCCGUUCGGGCGGCUAUAAACAGACCUCAGGCCCGAAGCGUGGCGGCACCUGCCGCCGGUGGUAAAAAAGAUCGGAAGAGCACACGUCU,1.52
8,GGGUCGGCAGGUAAUAAUCGCGUGGAUAUGGCACGCAAGUUUCUACCGGGCACCGUAAAUGUCCGACUGGAGCCGUUCGGGCGGCUAUAAACAGACCUCAGGCCCGAAGCGUGGCGGCACCUGCCGCCGGUGGUAAAAAAGAUCGGAAGAGCACACGUCU,1.28
9,GGGUCGGCAGCGGAUAAUCGCGUGGAUAUGGCACGCAAGUUUCUACCGGGCACCGUAAAUGUCCGACUGGAGCCGUUCGGGCGGCUAUAAACAGACCUCAGGCCCGAAGCGUGGCGGCACCUGCCGCCGGUGGUAAAAAAGAUCGGAAGAGCACACGUCU,1.02
10,GGGUCGGCAGCGAAUAAUCGCGUGGAUAUGGCACGCAAGUUUCUACCGGGCACCGUAAAUGUCCGACUGGAGCCGUUCGGGCGGCUAUAAACAGACCUCAGGCCCGAAGCGUGGCGGCACCUGCCGCCGGUGGUAAAAAAGAUCGGAAGAGCACACGUCU,1.14
11,GGGUCGGCAGCGUAUAAUCGCGUGGAUAUGGCACGCAAGUUUCUACCGGGCACCGUAAAUGUCCGACUGGAGCCGUUCGGGCGGCUAUAAACAGACCUCAGGCCCGAAGCGUGGCGGCACCUGCCGCCGGUGGUAAAAAAGAUCGGAAGAGCACACGUCU,1.18
12,GGGUCGGCAGGCCAUAAUCGCGUGGAUAUGGCACGCAAGUUUCUACCGGGCACCGUAAAUGUCCGACUGGAGCCGUUCGGGCGGCUAUAAACAGACCUCAGGCCCGAAGCGUGGCGGCACCUGCCGCCGGUGGUAAAAAAGAUCGGAAGAGCACACGUCU,1.77
13,GGGUCGGCAUAUCAUAAUCGCGUGGAUAUGGCACGCAAGUUUCUACCGGGCACCGUAAAUGUCCGACUGGAGCCGUUCGGGCGGCUAUAAACAGACCUCAGGCCCGAAGCGUGGCGGCACCUGCCGCCGGUGGUAAAAAAGAUCGGAAGAGCACACGUCU,1.36
14,GGGUCGGCAUAGCAUAAUCGCGUGGAUAUGGCACGCAAGUUUCUACCGGGCACCGUAAAUGUCCGACUGGAGCCGUUCGGGCGGCUAUAAACAGACCUCAGGCCCGAAGCGUGGCGGCACCUGCCGCCGGUGGUAAAAAAGAUCGGAAGAGCACACGUCU,1.1
15,GGGUCGGCAUAACAUAAUCGCGUGGAUAUGGCACGCAAGUUUCUACCGGGCACCGUAAAUGUCCGACUGGAGCCGUUCGGGCGGCUAUAAACAGACCUCAGGCCCGAAGCGUGGCGGCACCUGCCGCCGGUGGUAAAAAAGAUCGGAAGAGCACACGUCU,1.2
16,GGGUCGGCAGGUCAUAAUCGCGUGGAUAUGGCACGCAAGUUUCUACCGGGCACCGUAAAUGUCCGACUGGAGCCGUUCGGGCGGCUAUAAACAGACCUCAGGCCCGAAGCGUGGCGGCACCUGCCGCCGGUGGUAAAAAAGAUCGGAAGAGCACACGUCU,1.35
17,GGGUCGGCAGGACAUAAUCGCGUGGAUAUGGCACGCAAGUUUCUACCGGGCACCGUAAAUGUCCGACUGGAGCCGUUCGGGCGGCUAUAAACAGACCUCAGGCCCGAAGCGUGGCGGCACCUGCCGCCGGUGGUAAAAAAGAUCGGAAGAGCACACGUCU,1.3
18,GGGUCGGCAGGGCAUAAUCGCGUGGAUAUGGCACGCAAGUUUCUACCGGGCACCGUAAAUGUCCGACUGGAGCCGUUCGGGCGGCUAUAAACAGACCUCAGGCCCGAAGCGUGGCGGCACCUGCCGCCGGUGGUAAAAAAGAUCGGAAGAGCACACGUCU,1.27
